Assay results: doi:10.1101/2025.03.18.643936
Several values for one entry are separate records, joined by “and”; a condition that tells them apart may be missing. Identical values can stand only once.

Biological target: the i20S and the s20S (human)
Assay: mass photometry

Question: How did the Kd, first binding event turn out when “recombinantly expressed and purified human PA200 (from UniProt Q14997 1-1843) (natural protein)” was run?
Answer: Its Kd, first binding event is 20 nM and 30 nM.
